Experimental data: patent US20170204445A1, “IN VIVO SITE-SPECIFIC PROTEIN TAGGING USING ENGINEERED SORTASE VARIANTS” (priority 2016, published 2017)

Molecular target: Biotin-Lysozyme (hen) (UniProt P00698)
Assay: flow
Conditions: scFv

Chain of Biotin-Lysozyme (hen) (P00698 19-147): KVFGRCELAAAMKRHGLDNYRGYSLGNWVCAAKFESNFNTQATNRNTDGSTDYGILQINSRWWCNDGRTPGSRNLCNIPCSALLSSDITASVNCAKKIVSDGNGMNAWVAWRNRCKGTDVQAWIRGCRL

Substance	Kd [nM]
scFv D1.3 (from UniProt P32781 19-87)	0.5
scFv D1.3 (from UniProt P42212 1-238; P32781 19-87)	0.5
